The target of experiment [1] is T1, peptide tag (SEQ ID NO:16), unlabeled synthetic peptide (C-terminal amide).
T1 construct: Short peptide tag derived from the leucine zipper of the GCN4 transcription factor; also called protein tag peptide; unlabeled peptide
T1 peptide: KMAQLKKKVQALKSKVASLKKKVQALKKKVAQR
Briefly: equilibrium fluorescence anisotropy titration, 12.52 nM labeled peptide, 0.1x PBS, 25° C., 1:1 binding fit. (In general: In fluorescence polarisation assays a small probe gives low polarisation when free and higher when bound to something large.)

Experiment [2] concerns the target T1, peptide tag (SEQ ID NO:16), unlabeled …. Briefly: equilibrium fluorescence titration.
The target of experiment [3] is T2, human high affinity IgE receptor (FcεRI) α-chain with the NOVA-2 peptide tag at the C-terminus, expressed in … (human, UniProt P12319 26-257).
T2 construct: whole, on cells; Retained in the endoplasmic reticulum membrane of the cells; also called peptide-tagged FcεRI α-chain; NOVA2-tagged α-chain
T2 sequence: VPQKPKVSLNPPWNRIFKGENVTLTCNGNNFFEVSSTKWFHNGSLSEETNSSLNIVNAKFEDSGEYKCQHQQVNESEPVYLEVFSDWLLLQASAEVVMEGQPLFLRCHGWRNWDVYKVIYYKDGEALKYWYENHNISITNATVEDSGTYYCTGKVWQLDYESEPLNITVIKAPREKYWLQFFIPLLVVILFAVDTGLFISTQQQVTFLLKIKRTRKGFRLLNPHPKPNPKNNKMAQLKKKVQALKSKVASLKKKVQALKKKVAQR
As to the kind of experiment: fluorescence imaging in live Cos-7 cells after microinjection.

Experiment [4] has as its target T3, RhoA-GTPγS (recombinant 6His-tagged RhoA pre-equilibrated with GTPγS) (UniProt P61586 1-193, limits assumed).
T3 construct: not shown: 6His tag
Briefly: fluorescence of mero-CBD in solution.

Experiment [5] deals with T4, cdc42-GTPγS (recombinant 6His-tagged cdc42 loaded with GTPγS) (UniProt P60953 1-191, limits assumed).
T4 construct: not shown: 6His tag
Briefly: fluorescence of mero-CBD with saturating cdc42-GTPγS.

The target of experiment [6] is T4, cdc42-GTPγS (recombinant 6His-tagged …). Briefly: fluorescence of dye-labeled CBD in solution.

A word on the Kd: it is the constant that tells how readily two partners part at equilibrium.

Ends that are not written are not given here.

T4 sequence (P60953 whole entry): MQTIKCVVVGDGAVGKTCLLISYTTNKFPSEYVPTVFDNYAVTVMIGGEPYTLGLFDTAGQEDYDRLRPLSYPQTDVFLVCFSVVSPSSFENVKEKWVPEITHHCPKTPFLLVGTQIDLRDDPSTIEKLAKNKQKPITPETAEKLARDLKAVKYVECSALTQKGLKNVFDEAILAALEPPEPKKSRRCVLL
T3 sequence (P61586 whole entry): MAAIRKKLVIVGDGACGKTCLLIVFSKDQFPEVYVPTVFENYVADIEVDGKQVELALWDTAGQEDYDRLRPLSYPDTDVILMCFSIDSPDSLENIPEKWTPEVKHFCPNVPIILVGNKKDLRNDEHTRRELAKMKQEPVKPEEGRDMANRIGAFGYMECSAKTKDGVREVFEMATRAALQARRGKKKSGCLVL

B1: tetramethylrhodamine-labeled leucine zipper peptide (SEQ ID NO:15) with YGRKKRRNRRRP (SEQ ID NO:17) appended to the N-terminus, as used in the in vitro … (peptide)
peptide: YGRKKRRNRRRPCEMAQLEKEVQALESEVASLEKEVQALEKEVAQR-NH2
modifications: not fully specified
notes: Peptide derived from the GCN4 leucine zipper; also called labeled peptide; TMRPep
For B1, the results for the Kd in experiment [1] and in experiment [2] were 5.4 nM and 5 nM, respectively.

B2: rhodamine-labeled peptide (SEQ ID NO:15, tetramethylrhodamine on Lys 21), as microinjected into cells (peptide)
peptide: CEMAQLEKEVQALESEVASLEKEVQALEKEVAQR-NH2
modifications: also: tetramethylrhodamine on Lys stated as position 21, which does not match a Lys in the given chain
notes: also called rhodamine peptide biosensor; rhodamine-peptide
For the molecule B2, the binding result in experiment [3] was “binds”.

B3: mero-CBD-F271C conjugate (Cdc42-binding fragment of human WASP, amino acids 201 to 321, F271C, labeled with merocyanine dye) (other)
chain: DIQNPDITSSRYRGLPAPGPSPADKKRSGKKKISKADIGAPSGFKHVSHVGWDPQNGFDVNNLDPDLRSLCSRAGISEAQLTDAETSKLIYDFIEDQGGLEAVRQEMRRQEPLPPPPPPSR
modifications: merocyanine dye of FIG. 11 on Cys 271 (WASP numbering)
notes: that entry has 120 residues and ends at WASP 320; also called CBD-A4C; CBD biosensor; not shown: C-terminal 6His tag from pET23a
For B3, the binding result in experiment [4] is reported as “no binding”. The “fold increase in excitation and emission maxima” value in experiment [5] was approximately 3.5 fold. The “fold fluorescence change on binding” value in experiment [6] was approximately 3.5 fold.
